# In PMC6547726, “Advanced FRET normalization allows quantitative analysis of protein interactions including stoichiometries and relative affinities in living cells” (Scientific Reports, 2019):
# T1: YFP-tagged IKKα (UniProt O15111 1-745)
# T1 construct: IKKα, IKK subunit α of the NF-kappaB pathway; FRET donor; also called IKK subunit α; source: HeLa cells (clone ACC 57), transfected, in living cells
# T1 sequence (looked up): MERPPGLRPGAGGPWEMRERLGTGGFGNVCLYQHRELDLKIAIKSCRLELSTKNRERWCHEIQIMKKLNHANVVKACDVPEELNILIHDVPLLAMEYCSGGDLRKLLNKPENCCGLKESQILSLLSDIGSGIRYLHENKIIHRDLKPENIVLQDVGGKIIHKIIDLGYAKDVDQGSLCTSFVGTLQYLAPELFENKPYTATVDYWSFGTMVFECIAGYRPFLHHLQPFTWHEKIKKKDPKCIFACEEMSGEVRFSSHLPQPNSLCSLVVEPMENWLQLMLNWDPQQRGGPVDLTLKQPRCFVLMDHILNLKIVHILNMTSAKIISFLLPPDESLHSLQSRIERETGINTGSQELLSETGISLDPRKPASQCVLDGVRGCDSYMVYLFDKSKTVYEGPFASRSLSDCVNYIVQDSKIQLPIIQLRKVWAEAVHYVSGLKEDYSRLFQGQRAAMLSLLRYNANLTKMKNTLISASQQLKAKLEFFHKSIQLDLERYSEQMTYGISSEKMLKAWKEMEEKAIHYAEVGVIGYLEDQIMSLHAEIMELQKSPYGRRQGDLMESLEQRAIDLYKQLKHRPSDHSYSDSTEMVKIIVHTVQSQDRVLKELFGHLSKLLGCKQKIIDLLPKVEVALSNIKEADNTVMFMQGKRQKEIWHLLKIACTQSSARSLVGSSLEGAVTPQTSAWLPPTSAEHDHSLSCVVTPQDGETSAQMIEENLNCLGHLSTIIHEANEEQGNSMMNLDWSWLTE
# B1: mCherry-tagged IKKβ (natural protein, UniProt O14920 1-756, looked up)
# chain: MSWSPSLTTQTCGAWEMKERLGTGGFGNVIRWHNQETGEQIAIKQCRQELSPRNRERWCLEIQIMRRLTHPNVVAARDVPEGMQNLAPNDLPLLAMEYCQGGDLRKYLNQFENCCGLREGAILTLLSDIASALRYLHENRIIHRDLKPENIVLQQGEQRLIHKIIDLGYAKELDQGSLCTSFVGTLQYLAPELLEQQKYTVTVDYWSFGTLAFECITGFRPFLPNWQPVQWHSKVRQKSEVDIVVSEDLNGTVKFSSSLPYPNNLNSVLAERLEKWLQLMLMWHPRQRGTDPTYGPNGCFKALDDILNLKLVHILNMVTGTIHTYPVTEDESLQSLKARIQQDTGIPEEDQELLQEAGLALIPDKPATQCISDGKLNEGHTLDMDLVFLFDNSKITYETQISPRPQPESVSCILQEPKRNLAFFQLRKVWGQVWHSIQTLKEDCNRLQQGQRAAMMNLLRNNSCLSKMKNSMASMSQQLKAKLDFFKTSIQIDLEKYSEQTEFGITSDKLLLAWREMEQAVELCGRENEVKLLVERMMALQTDIVDLQRSPMGRKQGGTLDDLEEQARELYRRLREKPRDQRTEGDSQEMVRLLLQAIQSFEKKVRVIYTQLSKTVVCKQKALELLPKVEEVVSLMNEDEKTVVRLQEKRQKELWNLLKIACSKVRGPVSGSPDSMNASRLSQPGQLMSQPSTASNSLPEPAKKSEELVAEAHNLCTLLENAIQDTVREQDQSFTALDWSWLQTEEEEHSCLEQAS
# notes: IKKβ, IKK subunit β of the NF-kappaB pathway; FRET acceptor; also called IKK subunit β; source: HeLa cells (clone ACC 57), transfected, in living cells
# Tests used:
# YFP-p65 = YFP-p65 (UniProt Q04206); assay: FRET or BRET; 3-filter FRET by flow cytometry (CYTOFLEX S) of living transfected HeLa cells, five plasmid ratios; DFRET of single cells fitted to a law-of-mass-action model (Ka^app apparent, z, FRETmax)
# YFP-p65, sequence (Q04206 whole entry): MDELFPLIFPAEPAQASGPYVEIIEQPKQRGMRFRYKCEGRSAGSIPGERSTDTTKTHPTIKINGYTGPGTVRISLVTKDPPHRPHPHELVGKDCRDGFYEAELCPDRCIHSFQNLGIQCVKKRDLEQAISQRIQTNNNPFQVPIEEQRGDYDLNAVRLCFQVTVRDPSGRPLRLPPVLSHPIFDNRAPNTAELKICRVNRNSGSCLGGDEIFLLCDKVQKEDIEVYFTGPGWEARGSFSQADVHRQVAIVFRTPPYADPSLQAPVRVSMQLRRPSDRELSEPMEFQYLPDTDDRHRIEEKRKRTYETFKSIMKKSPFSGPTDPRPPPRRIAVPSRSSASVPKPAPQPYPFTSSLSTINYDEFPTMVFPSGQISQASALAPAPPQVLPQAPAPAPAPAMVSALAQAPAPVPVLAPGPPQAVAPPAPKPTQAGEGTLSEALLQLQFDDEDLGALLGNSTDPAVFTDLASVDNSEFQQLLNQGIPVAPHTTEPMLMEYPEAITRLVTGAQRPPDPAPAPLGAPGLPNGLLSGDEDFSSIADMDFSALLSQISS
# YFP-tagged IKKα = molecular target: T1, YFP-tagged IKKα; assay: as above; conditions: partners not purified
Molecule,stoichiometry N (acceptor (IκB) per donor (p65)) (YFP-p65),stoichiometry N (YFP-tagged IKKα)
IκB-mCherry (from UniProt P25963 1-317) (natural protein),0.5,
B1,,~1 acceptor (IKKβ) per donor (IKKα)
